Experimental data taken from the Human Domainome abundance scans (Beltran et al. 2025).
± gives the uncertainty stated by the source.

B1: Chromodomain-helicase-DNA-binding protein 3, residues 374 to 426; numbered along this chain, Q12873 (parent)
chain: YETDHQDYCEVCQQGGEIILCDTCPRAYHLVCLDPELDRAPEGKWSCPHCEKE
B2: Ubiquitin-protein ligase residues 30 to 86; numbered along this chain, Q05086 (parent)
chain: KHLIERYYHQLTEGCGNEACTNEFCASCPTFLRMDNNAAAIKALELYKINAKLCDPH

Variants of: B1
Test: abundance fitness (aPCA) (normalised: wild type 0, dead -1); higher = more abundant; growth selection in yeast, the domain comes from the species named
Conditions: Homo sapiens

Variant	abundance fitness
E53W	-0.401 ± 0.32

Variants of: B2
Test: as above
Conditions: Homo sapiens

Variant	abundance fitness
KHPIERYYHQLTEGCGNEACTNEFCASCPTFLRMDNNAAAIKALELYKINAKLCDPH	-0.204 ± 0.078
KHNIERYYHQLTEGCGNEACTNEFCASCPTFLRMDNNAAAIKALELYKINAKLCDPH	-0.057 ± 0.11
KHWIERYYHQLTEGCGNEACTNEFCASCPTFLRMDNNAAAIKALELYKINAKLCDPH	-0.049 ± 0.057
KHMIERYYHQLTEGCGNEACTNEFCASCPTFLRMDNNAAAIKALELYKINAKLCDPH	0.048 ± 0.074
KHQIERYYHQLTEGCGNEACTNEFCASCPTFLRMDNNAAAIKALELYKINAKLCDPH	0.014 ± 0.083
KHCIERYYHQLTEGCGNEACTNEFCASCPTFLRMDNNAAAIKALELYKINAKLCDPH	-0.005 ± 0.088
KHVIERYYHQLTEGCGNEACTNEFCASCPTFLRMDNNAAAIKALELYKINAKLCDPH	-0.474 ± 0.058
KHSIERYYHQLTEGCGNEACTNEFCASCPTFLRMDNNAAAIKALELYKINAKLCDPH	-0.004 ± 0.057
KHAIERYYHQLTEGCGNEACTNEFCASCPTFLRMDNNAAAIKALELYKINAKLCDPH	-0.334 ± 0.055
KHDIERYYHQLTEGCGNEACTNEFCASCPTFLRMDNNAAAIKALELYKINAKLCDPH	-0.264 ± 0.082
KHRIERYYHQLTEGCGNEACTNEFCASCPTFLRMDNNAAAIKALELYKINAKLCDPH	-0.077 ± 0.047
KHIIERYYHQLTEGCGNEACTNEFCASCPTFLRMDNNAAAIKALELYKINAKLCDPH	-0.039 ± 0.092
KHYIERYYHQLTEGCGNEACTNEFCASCPTFLRMDNNAAAIKALELYKINAKLCDPH	-0.021 ± 0.11
KHEIERYYHQLTEGCGNEACTNEFCASCPTFLRMDNNAAAIKALELYKINAKLCDPH	-0.206 ± 0.081
KHGIERYYHQLTEGCGNEACTNEFCASCPTFLRMDNNAAAIKALELYKINAKLCDPH	-0.129 ± 0.049
KHKIERYYHQLTEGCGNEACTNEFCASCPTFLRMDNNAAAIKALELYKINAKLCDPH	0.003 ± 0.096
KLLIERYYHQLTEGCGNEACTNEFCASCPTFLRMDNNAAAIKALELYKINAKLCDPH	-0.005 ± 0.066
KTLIERYYHQLTEGCGNEACTNEFCASCPTFLRMDNNAAAIKALELYKINAKLCDPH	-0.085 ± 0.099
KVLIERYYHQLTEGCGNEACTNEFCASCPTFLRMDNNAAAIKALELYKINAKLCDPH	-0.044 ± 0.072
KYLIERYYHQLTEGCGNEACTNEFCASCPTFLRMDNNAAAIKALELYKINAKLCDPH	0.051 ± 0.094
KELIERYYHQLTEGCGNEACTNEFCASCPTFLRMDNNAAAIKALELYKINAKLCDPH	-0.055 ± 0.086
KQLIERYYHQLTEGCGNEACTNEFCASCPTFLRMDNNAAAIKALELYKINAKLCDPH	0.025 ± 0.071
KWLIERYYHQLTEGCGNEACTNEFCASCPTFLRMDNNAAAIKALELYKINAKLCDPH	-0.542 ± 0.071

Variant	abundance fitness
KSLIERYYHQLTEGCGNEACTNEFCASCPTFLRMDNNAAAIKALELYKINAKLCDPH	0.019 ± 0.071
KKLIERYYHQLTEGCGNEACTNEFCASCPTFLRMDNNAAAIKALELYKINAKLCDPH	-0.021 ± 0.12
KCLIERYYHQLTEGCGNEACTNEFCASCPTFLRMDNNAAAIKALELYKINAKLCDPH	-0.204 ± 0.081
KPLIERYYHQLTEGCGNEACTNEFCASCPTFLRMDNNAAAIKALELYKINAKLCDPH	-0.116 ± 0.077
KILIERYYHQLTEGCGNEACTNEFCASCPTFLRMDNNAAAIKALELYKINAKLCDPH	0.229 ± 0.23
KRLIERYYHQLTEGCGNEACTNEFCASCPTFLRMDNNAAAIKALELYKINAKLCDPH	-0.025 ± 0.052
KMLIERYYHQLTEGCGNEACTNEFCASCPTFLRMDNNAAAIKALELYKINAKLCDPH	-0.03 ± 0.091
KALIERYYHQLTEGCGNEACTNEFCASCPTFLRMDNNAAAIKALELYKINAKLCDPH	-0.041 ± 0.085
KDLIERYYHQLTEGCGNEACTNEFCASCPTFLRMDNNAAAIKALELYKINAKLCDPH	0.082 ± 0.11
SHLIERYYHQLTEGCGNEACTNEFCASCPTFLRMDNNAAAIKALELYKINAKLCDPH	-0.833 ± 0.28
LHLIERYYHQLTEGCGNEACTNEFCASCPTFLRMDNNAAAIKALELYKINAKLCDPH	-0.577 ± 0.27
THLIERYYHQLTEGCGNEACTNEFCASCPTFLRMDNNAAAIKALELYKINAKLCDPH	-0.1 ± 0.15
PHLIERYYHQLTEGCGNEACTNEFCASCPTFLRMDNNAAAIKALELYKINAKLCDPH	-0.719 ± 0.41
YHLIERYYHQLTEGCGNEACTNEFCASCPTFLRMDNNAAAIKALELYKINAKLCDPH	-0.31 ± 0.36
NHLIERYYHQLTEGCGNEACTNEFCASCPTFLRMDNNAAAIKALELYKINAKLCDPH	-0.397 ± 0.23
MHLIERYYHQLTEGCGNEACTNEFCASCPTFLRMDNNAAAIKALELYKINAKLCDPH	-0.253 ± 0.14
CHLIERYYHQLTEGCGNEACTNEFCASCPTFLRMDNNAAAIKALELYKINAKLCDPH	-0.33 ± 0.25
AHLIERYYHQLTEGCGNEACTNEFCASCPTFLRMDNNAAAIKALELYKINAKLCDPH	-0.757 ± 0.29
VHLIERYYHQLTEGCGNEACTNEFCASCPTFLRMDNNAAAIKALELYKINAKLCDPH	-0.517 ± 0.23
GHLIERYYHQLTEGCGNEACTNEFCASCPTFLRMDNNAAAIKALELYKINAKLCDPH	-0.476 ± 0.27
RHLIERYYHQLTEGCGNEACTNEFCASCPTFLRMDNNAAAIKALELYKINAKLCDPH	-0.102 ± 0.11
EHLIERYYHQLTEGCGNEACTNEFCASCPTFLRMDNNAAAIKALELYKINAKLCDPH	-0.368 ± 0.31
FHLIERYYHQLTEGCGNEACTNEFCASCPTFLRMDNNAAAIKALELYKINAKLCDPH	-0.53 ± 0.32
